Data as given in the RNAGym collection of RNA variant scans (doi:10.1073/pnas.2313332121).
Variants at the floor of the assay were thinned out.

B1: TPR 5TU (parent)
chain: GGAUCUUCUCGAUCUAACAAAAAAGACAAAUCUGCCACAAAGCUUGAGAGCAUCUUCGGAUGCAGAGGCGGCAGCCUUCGGUGGCGCGAUAGCGCCAACGUUCUCAACUAUGACACGCAAAACGCGUGCUCCGUUGAAUGGAGUUUAUCAUG

Variants of: B1
Assay: polymerase ribozyme fitness, log enrichment relative to wild type (log ratio); higher = more active; in vitro selection for triplet polymerase activity
In short: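 A single round of triplicate in vitro selection, including frozen incubation at −7 °C, was applied to PCR-built, transcribed mutant libraries of each subunit of a heterodimeric triplet polymerase ribozyme. Illumina sequencing of input and output libraries retained genotypes with ≥10 input reads and ≥1 read per output. Fitness is the base-2 logarithm of genotype enrichment divided by wild-type enrichment, from inverse-variance-weighted replicate averages.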

| Variant | polymerase ribozyme fitness (log ratio) |
| --- | --- |
| A49C G84U A107G U111G A120G | ≤ -4.2 |
| A47U C93G | -3.23 |
| A49C U146A | -3.98 |
| A49C A60G G67U C85U C93G A97G | ≤ -4.2 |
| G50C A120U A121C | -2.61 |
| A49C G50U U78G C85U A97G U102G A107U A142C | ≤ -4.2 |
| A49C A52U A60G G94A A97G | -3.63 |
| G50A U56A G86A | -3.11 |
| A49C U56A A64G C87U | ≤ -4.2 |
| A49C A115U | ≤ -4.2 |
| G50C G80A C85U C87U C108U | ≤ -4.2 |
| G50C C87U A122U | -3.11 |
| G50A C125A | -1.79 |
| A47U C54A C75G G140A | ≤ -4.2 |
| A49C C54A U78C C85U | -3.91 |
| G50A C96G C129U | -3.02 |
| A47G C69A A122G | -3.43 |
| G48C U102G | -2.42 |
| G48U U77C C79G G143U | ≤ -4.2 |
| G50A G88U U127C | ≤ -4.2 |
| G50A C57A U127A G143U | -4.04 |
| A47G C87U U101C | 0.535 |
| A47U C57U | 0.131 |
| A47G U82G C95G | -3.89 |

| Variant | polymerase ribozyme fitness (log ratio) |
| --- | --- |
| A49U C51U A147C | -0.373 |
| A47U C85G | -2.65 |
| A47U C85A | -2.21 |
| G48U C85U | -0.485 |
| G48C C85U | -1.95 |
| A47U C85U A150C | ≤ -4.2 |
| A49U G133U | -3.93 |
| G50A C118U A122G A137G A147U | -2.53 |
| G48A G86C C123A C125G | -3.94 |
| G50A G136U U144G U146C | -2.38 |
| G48U U56A G67A A73C G86U A107G | ≤ -4.2 |
| A47G U90A | -3.82 |
| G50C C93A C103G A113G A115U G140C | ≤ -4.2 |
| A49U G50A | -0.047 |
| A47G G62U A142G U146G | -4.12 |
| G50C G83A | -3.65 |
| G48U G92U U144C | -0.761 |
| A49C A66U | ≤ -4.2 |
| A49C A66G | ≤ -4.2 |
| G50A G133C | -3.28 |
| G50C A52G U77A G128U A142U | ≤ -4.2 |
| A49U A52G C96U C99G | ≤ -4.2 |
| A47G A147U | 0.466 |
| A49C U56A C69A C99A | ≤ -4.2 |

| Variant | polymerase ribozyme fitness (log ratio) |
| --- | --- |
| G50C G68U C85U G92U A106G | ≤ -4.2 |
| G50C A66G C96U U146G | ≤ -4.2 |
| A47U U77C | -4.09 |
| G50A C93A A97G C99U U109G | ≤ -4.2 |
| G48C C79A G86U C96U G124A | ≤ -4.2 |
| A47U G70U A122G | -3.45 |
| A47G G59C U61A G92C G141A U148C | ≤ -4.2 |
| G48A C57A | 0.284 |
| A49C U145G | ≤ -4.2 |
| A49G A66G G71C C87G C95G A120G G124C A142U | ≤ -4.2 |
| G48C U53C G136U | -3.16 |
| A47U U55G G94A | -0.633 |
| A47G C57U U109G | -0.869 |
| A47U A52G U144G | 0.507 |
| A47U G83C A142G | -2.42 |
| G50C G86U U111G | ≤ -4.2 |
| A49C U55G A60U G65A G74C U77A | ≤ -4.2 |
| G48A C96U | -0.356 |
| G48A C96A | -1.51 |
| A49C U134G | ≤ -4.2 |
| A49U G59A A122U | -0.783 |
| G50C G86A | ≤ -4.2 |
| A49G G59U A97U G143A | -3.58 |
| A49G U53C A98U A121G | -1.87 |

| Variant | polymerase ribozyme fitness (log ratio) |
| --- | --- |
| A49C U55G C76U C87A C99U C105U A120U | ≤ -4.2 |
| A49C C75G C87A | ≤ -4.2 |
| G48A C57G G83C C87G U102A G112C A119C | ≤ -4.2 |
| G48A C103A | -1.74 |
| G50C A60G | -2.31 |
| A49C C93U | ≤ -4.2 |
| A49C C69U G84A C93U C96U C129G U148C | ≤ -4.2 |
| A47G G68A C72U G81A A89G U148A | ≤ -4.2 |
| G48A C125U | -0.97 |
| A49U C96A | -3.45 |
| G50C C87A C93A C99U A137U A138C | ≤ -4.2 |
| A47G G62U U145C U151A | ≤ -4.2 |
| G50C G59U C118U | -2.35 |
| G50C G84A | -3.25 |
| A47G A98G A115G C123G U130A | -3.77 |
| A49G U53C C114U | -2.54 |
| A49U G84U A97G C114G | ≤ -4.2 |
| A47U G62A U127C G133U | ≤ -4.2 |
| G50C C123U | -2.4 |
| A49G C63A G71U G83U A122U A150U | ≤ -4.2 |
| G50A G128U | -3.21 |
| G50A A73U C87A U144A | ≤ -4.2 |
| A49U A66G G84A C87U A98G | ≤ -4.2 |
| A47C U53A C85G U139A | ≤ -4.2 |

| Variant | polymerase ribozyme fitness (log ratio) |
| --- | --- |
| G48A A52G U55G G70C C96A | ≤ -4.2 |
| A49U A73G G86C A97U | ≤ -4.2 |
| A49C G58A G65A U139A | ≤ -4.2 |
| A49U C87A | ≤ -4.2 |
| A47U U55G G68A G84U U151A | ≤ -4.2 |
| G50A C54U U56A G70A C87G U90A C95G U109G C114G G141U | ≤ -4.2 |
| A47U A89G C131A | ≤ -4.2 |
| G48A U56A C85U A110G G141U | ≤ -4.2 |
| G48C U55A C93G | -3.87 |
| A49U G58C G124U | -1.3 |
| G50A G84U A147U | -1.53 |
| G48C C118U | -0.625 |
| A47G U90C G92C G128U A137C A147C | ≤ -4.2 |
| G50A C75U G83U C93U G141A | ≤ -4.2 |
| G50C C87U A113C C116A G143U U145C | ≤ -4.2 |
| A47C U82G A142C | -2.54 |
| G48A C69G G84U | -2.41 |
| G48C A91U G143C | ≤ -4.2 |
| G48U A120U | -0.0736 |
| G50A C79U A138G | ≤ -4.2 |
| A47C G141C U148G | ≤ -4.2 |
| G50A C57G G81A C85U C116U | -2.31 |
| G50A A52G C76U A98G C123G | -2.81 |
| G48C G68C G70A C129G | ≤ -4.2 |

| Variant | polymerase ribozyme fitness (log ratio) |
| --- | --- |
| G48U A52C C93U | -3.41 |
| A49U U55A A106G | -0.994 |
| A49G U53A U144G | -0.883 |
| G48U U146G | -1.42 |
| A47U C87U A91U C95U C114G A120C | ≤ -4.2 |
| G48C A64G G70U G94U U144G C149A | ≤ -4.2 |
| G48U G86U | -1.58 |
| A49C U55G U61A C96A U111G A119U U148C | ≤ -4.2 |
| A47U C76U A119C U139G | -2.8 |
| A49G A91G A142C | -3.71 |
| A47G C99A A142U | -2.48 |
| A49U C76A U77G C95G C96U C108U A142G | ≤ -4.2 |
| A49C A73G C93U U127A | ≤ -4.2 |
| A49U G58C C75G C118G G124A | ≤ -4.2 |
| G50A C79A | ≤ -4.2 |
| G50C C87G | ≤ -4.2 |
| A49G G50A U56A C95U U101C U111G | ≤ -4.2 |
| A47G G80A | -0.0419 |
| A49U U55A U56G | -1.76 |
| A49U C69U | -1.86 |
| A47U A97C | 0.501 |
| G50C C87A C114G A150C | ≤ -4.2 |
| A47C U56A U78A U90G | ≤ -4.2 |
| A49U U55G G58A C123A G126U U148A | ≤ -4.2 |

| Variant | polymerase ribozyme fitness (log ratio) |
| --- | --- |
| A49C U56A A113U G152U | -3.93 |
| A49G U53A G59A A142U | -2.64 |
| G48A G84C G100C | ≤ -4.2 |
| A49C U109G | ≤ -4.2 |
| G48A G136C | -2.57 |
| A49C A64U C75U C76U U135G | ≤ -4.2 |
| A49C C51U C95U C96A G112A G126A | ≤ -4.2 |
| A49C C96G | -3.45 |
| A49C C116A G143C | ≤ -4.2 |
| A49C U55A G86A C99G A142U | ≤ -4.2 |
| A47G U61G A142G | -2.82 |
| A49U C85U | -2.25 |
| A49U C85A | -1.86 |
| A49C A107G U151C | ≤ -4.2 |
| A47U A52G A119C | -1.05 |
| A47G C93A C131U U134C | -0.603 |
| G48A C79A C85G A110U G124A | ≤ -4.2 |
| G50C A89G C99U A122G | ≤ -4.2 |
| G50A U55G A97G U102G | -3.43 |
| G50A C95A U111A U135A | ≤ -4.2 |
| G50C A98U U101A | ≤ -4.2 |
| A47U A49C C51U C93A | ≤ -4.2 |
| G50A A64G | -3.77 |
